Results reported in patent publication US7531500B2, “Preventing airway mucus production by administration of EGF-R antagonists” (The Regents of the University of California, priority 1998, dated 2009).

Legend:
NCI-H292 cells = assay: Immunoassay of MUC5AC protein in NCI-H292 cells (Example 2); type: cell-based, human
Method: Cell Culture. NCI-H292 cells, a human pulmonary mucoepidermoid carcinoma cell line, were grown in RPMI 1640 medium containing 10% fetal bovine serum, penicillin (100 U/ml), streptomycin (100 μg/ml) and Hepes (25 mM) at 37° C. in a humidified 5% CO2, water-jacketed incubator. Either 6-well culture plates or 8-chamber slides were used to culture the cells. […] The cells were then washed and incubated with fresh medium alone. Experiments were terminated at preselected times (for mRNA, 6 h and 12 h; for protein, 24 h). As controls, cells were incubated with medium alone for same time periods. […] In inhibition studies with blocking antibodies to EGF-R ligands, the supernatants were pretreated with anti-TGFα antibody (Calbiochem) or anti-EGF antibody for 30 min and then added to NCI-H292 cells. The role of oxygen free radicals was examined using scavengers of oxygen free radical DMSO (1%, Sigma), 1,3-dimethyl-2-thiourea (DMTU, 50 mM, Sigma), or superoxide dismutase (SOD, 300 U/ml, Sigma).
Preparation of Cigarette Smoke Solution. Research cigarettes (code2R1, produced for the University of Kentucky Tobacco and Health Research Foundation) were used in the study. Cigarette smoke solution was prepared as previously described (Dusser et al. (1989) J. Clin. Invest. 84:900-906). In brief, cigarette smoke was withdrawn into a polypropylene syringe (35 ml) at a rate of one puff/min (10 times) and bubbled slowly into 20 ml of RPM11640 containing 50 mM Hepes buffer. The smoke solution was then titrated to pH 7,4 and used immediately after preparation.
Immunoassay of MUC5AC Protein. MUC5AC protein was measured as described above. In brief, cell lysates were prepared with PBS at multiple dilutions, and 50 μl of each sample was incubated with bicarbonate-carbonate buffer (50 μl) at 40° C. in a 96-well plate (Maxisorp Nunc, Fisher Scientific, Santa Clara, Calif.), until dry. Plates were washed three times with PBS and blocked with 2% BSA (fraction V, Sigma) for 1 h at room temperature. Plates were again washed three times with PBS and then incubated with 50 μl of mouse monoclonal MUC5AC antibody (1:100) that was diluted with PBS containing 0.05% Tween 20. After 1 h, the wells were washed three times with PBS, and 100 μl horseradish peroxidase-goat anti-mouse IgG conjugate (1:10,000, Sigma) was dispensed into each well. After 1 h, plates were washed three times with PBS. Color reaction was developed with TMB peroxidase solution (Kirkegaard & Perry Laboratories, Gaithersburg, Md.) and stopped with 2N H2SO4. Absorbance was read at 450 nm.

sensitized rats = assay: Goblet cell production in ovalbumin-sensitized rats (asthma model); type: in vivo, rat; settings: for Goblet cells in tracheal epithelium: counted over 2 mm basal lamina, 5 rats
Method: Sensitization. Rats were sensitized on days 0 and 10 with intraperitoneal injections of ovalbumin (10 mg, grade V; Sigma, St. Louis, Mo.), complexed with 100 mg of aluminum hydroxide in 0.5 ml of sterile saline, Rats then rested for 10 days. On day 20, ovalbumin was delivered directly into the trachea; animals were challenged with 100 μl of 0.1% ovalbumin in saline by intratracheal instillation three times (days 20, 22 and 24). Rats were euthanized either without challenge (day 20), or 48 h after the third challenge (day 26). This procedure induced goblet cell metaplasia. To block the goblet cell hyperplasia, sensitized rats were pretreated with an EGF-R tyrosine kinase inhibitor, BIBX1522. On days of ovalbumin challenge (days 20, 22 and 24), sensitized rats were pretreated with BIBX1 522 (10 mg/kg, i.p., 1 h before the challenge) and then BIBX1522 was also instilled into the trachea together with ovalbumin (BIBX1522, 10^−5M, 100 μl). BIBX1522 was also injected i.p. every 24 h until the day before the rats were euthanized. After the animals were euthanized, the trachea was removed 48 h after the third challenge.
Tissue preparation. At preselected times during anesthesia, the systemic circulation was perfused with 1% paraformaldehyde in DEPC-treated PBS at a pressure of 120 mmHg. The trachea was then removed and placed in 4% paraformaldehyde for 24 h. After fixation, trachea and lungs were embedded in either JB-4 plus monomer solution A for cell analysis or O.C.T. compound (Sakura Finetek U.S.A., Inc., Torrance, Calif.) for immunohistochemistry and in situ hybridization. The embedded tissues were cut as cross sections ([…] thick) and placed on slides.
Cell analysis. We counted the total number of epithelial cells by counting epithelial cell nuclei over 2 mm of the basal lamina with an oil immersion objective lens (×1000 magnification). The linear length of the basal lamina under each analyzed region of epithelium was determined by tracing the contour of the digitized image of the basal lamina. After instillation of stimuli, “developing” goblet cells form. These cells have Alcian blue/PAS-positive granules, but the size of granules is small, and the number of cytoplasmic granules is few. We call these “developing” goblet cells “pre-goblet cells”, a stage before cells become mature goblet cells. Goblet cells are tall, cuboidal, goblet to low columnar in shape, with abundant Alcian blue/PAS-stained granules filling most of the cytoplasm between the nucleus and the luminal surface. Pre-goblet cells are defined as cells with smaller mucus-stained areas (<1/3 height in epithelium from basement membrane to luminal surface) or with sparsely and lightly Alcian blue/PAS-stained, small granules. Ciliated cells are recognized by their ciliated borders, lightly stained cytoplasm, and large round nuclei. Non-granulated secretory cells are columnar in shape and extend from the lumen to the basal lamina. The cytoplasm stains light pink color, and a few tiny PAS-positive and Alcian blue-negative granules are observed in the cytoplasm. Basal cells are small flattened cells with a large nucleus, located just above the basal lamina but not reaching the airway lumen.
Quantification of goblet cell production. Goblet cell production, was determined by the volume density of Alcian blue/PAS-stained mucosubstances on the mucosal surface epithelium using a semi-automatic imaging system described elsewhere (Weber et al. (1984) Science 224:294-297). We measured the Alcian blue/PAS-positive stained area and the total epithelial area and expressed the data as the percentage of the total area stained by Alcian blue-PAS. The analysis was performed with the public domain NIH Image program (developed at the U.S. National Institute of Health and available from the Internet by anonymous FTP from zippy.nimh.gov or on floppy disk from the National Technical Information Service, Springfield, Va., part number PB95-500195GEI).

## IL-8: recombinant human IL-8 (Genzyme)
NCI-H292 cells; 1 h incubation, protein at 24 h, IL-8 10^-8 M, fMLP 10^-8 M, TNFα 20 ng/ml
  MUC5AC synthesis, stimulus alone without neutrophils: no effect

## CNC(=S)NC [DMTU, 1,3-dimethyl-2-thiourea]
NCI-H292 cells; DMSO 1%, DMTU 50 mM, SOD 300 U/ml
  MUC5AC synthesis by supernatant of activated neutrophils, cigarette smoke and H2O2: significantly inhibited

B1: Ova: ovalbumin, grade V (Sigma), used to sensitize and challenge rats (protein, UniProt P01012 2-386, looked up)
Ovalbumin: GSIGAASMEFCFDVFKELKVHHANENIFYCPIAIMSALAMVYLGAKDSTRTQINKVVRFDKLPGFGDSIEAQCGTSVNVHSSLRDILNQITKPNDVYSFSLASRLYAEERYPILPEYLQCVKELYRGGLEPINFQTAADQARELINSWVESQTNGIIRNVLQPSSVDSQTAMVLVNAIVFKGLWEKAFKDEDTQAMPFRVTEQESKPVQMMYQIGLFRVASMASEKMKILELPFASGTMSMLVLLPDEVSGLEQLESIINFEKLTEWTSSNVMEERKIKVYLPRMKMEEKYNLTSVLMAMGITDVFSSSANLSGISSAESLKISQAVHAAHAEINEAGREVVGSAEAGVDAASVSEEFRADHPFLFCIKHIATNAVLFFGRCVSP
Sensitized rats; Ova i.p. + i.t.
  % of AB/PAS-stained area: 38.7 ± 6.2 %
  Basal cells in tracheal epithelium: 59.8 ± 2.9
  Ciliated cells in tracheal epithelium: 52.4 ± 7.1
  Indeterminate cells in tracheal epithelium: 2.6 ± 0.5
  Pre-goblet cells in tracheal epithelium: 36.0 ± 6.3
  Secretory cells in tracheal epithelium: 49.8 ± 4.2
  Total cells in tracheal epithelium: 238.8 ± 4.4
Sensitized rats; Ova i.p. only
  % of AB/PAS-stained area: 7.8 ± 2.9%
  Basal cells in tracheal epithelium: 60.2 ± 3.4
  Ciliated cells in tracheal epithelium: 56.4 ± 3.8
  Indeterminate cells in tracheal epithelium: 1.4 ± 0.2
  Pre-goblet cells in tracheal epithelium: 13.8 ± 1.4
  Secretory cells in tracheal epithelium: 67.6 ± 7.0
  Total cells in tracheal epithelium: 204.8 ± 6.6
Sensitized rats; Ova sensitization i.p. + i.t.
  Goblet cells in tracheal epithelium: 38.2 ± 6.3
Sensitized rats; Ova sensitization i.p. only
  Goblet cells in tracheal epithelium: 5.4 ± 1.5
